Columns and labels:
[1] = target: recombinant human TAF2, full length (human); assay: native MS; TAF2–8–10 in 500 mM ammonium acetate pH 7.5, Q-ToF II, collision-induced dissociation
[2] = target: recombinant human TAF2, full length (human); assay: AUC; sedimentation velocity, absorbance at 280 nm, 42,000 r.p.m., 10 °C; c(s) analysis with Sedfit
[3] = target: truncated Importin α1 (residues 71–497) (UniProt P52292); assay: ITC; MicroCal iTC200, 25 °C; 1.5 mM TAF8 peptide injected into 39 μM Importin α1; 25 mM Tris-HCl pH 8.0, 150 mM NaCl, 1 mM β-mercaptoethanol; one-site model; duplicates
[4] = target: recombinant human TAF8, full length (human) (UniProt Q7Z7C8); assay: AUC; sedimentation velocity, absorbance at 280 nm, 42,000 r.p.m., 10 °C; c(s) analysis with Sedfit
[5] = target: recombinant human TAF2, full length (human); assay: SPR; BIACORE 3000, 25 °C; TAF2 amine-coupled to CM5 (2,500 RU); MBP–TAF8 analytes at 500 nM; 25 mM HEPES-NaOH pH 7.0, 300 mM NaCl, 0.01% NP-40

Question: Which stoichiometry N [1] does the source give for “TAF8–10 complex (full-length TAF8 and TAF10) (from UniProt Q7Z7C8-1 1-310)” here?
Answer: 1

Question: And the stoichiometry N [2]?
Answer: 1

Question: How did the Kd [3] turn out when “TAF8 NLS peptide used for ITC (printed as residues 288–310)” was run?
Answer: 10.4 µM

Question: What about the dH [3] of the same molecule?
Answer: -18.5 kcal/mol

Question: And the stoichiometry N [3]?
Answer: 1

Question: Which stoichiometry N [4] does the source give for “recombinant human TAF10, full length (natural protein)” here?
Answer: 1

B1: MBP–TAF8 (residues 105–310) (domain or fragment)
chain: DTLPAYAKRSQRMVITAPPVTNQPVTPKALTAGQNRPHPPHIPSHFPEFPDPHTYIKTPTYREPVSDYQVLREKAASQRRDVERALTRFMAKTGETQSLFKDDVSTFPLIAARPFTIPYLTALLPSELEMQQMEETDSSEQDEQTDTENLALHISMEDSGAEKENTSVLQQNPSLSGSRNGEENIIDNPYLRPVKKPKIRRKKSLS
Question: Which maximal association level [5] does the source give for B1 here?
Answer: 85 RU

B2: MBP–TAF8 (residues 141–310) (domain or fragment)
chain: PHPPHIPSHFPEFPDPHTYIKTPTYREPVSDYQVLREKAASQRRDVERALTRFMAKTGETQSLFKDDVSTFPLIAARPFTIPYLTALLPSELEMQQMEETDSSEQDEQTDTENLALHISMEDSGAEKENTSVLQQNPSLSGSRNGEENIIDNPYLRPVKKPKIRRKKSLS
Question: B2 was tested. Which maximal association level [5] did it give?
Answer: 40 RU

B3: MBP–TAF8 (residues 200–310) (domain or fragment)
chain: TQSLFKDDVSTFPLIAARPFTIPYLTALLPSELEMQQMEETDSSEQDEQTDTENLALHISMEDSGAEKENTSVLQQNPSLSGSRNGEENIIDNPYLRPVKKPKIRRKKSLS
Question: For B3, which maximal association level [5] is on record?
Answer: < 10 RU

B4: MBP–TAF8 (residues 105–260) (domain or fragment)
chain: DTLPAYAKRSQRMVITAPPVTNQPVTPKALTAGQNRPHPPHIPSHFPEFPDPHTYIKTPTYREPVSDYQVLREKAASQRRDVERALTRFMAKTGETQSLFKDDVSTFPLIAARPFTIPYLTALLPSELEMQQMEETDSSEQDEQTDTENLALHISM
Question: Which maximal association level [5] does the source give for B4 here?
Answer: < 10 RU

— article PMC4309443
